Key:
[1] = molecular target: D3 NDD-His-tag (N-terminal docking domain of DEBS2, 6-deoxyerythronolide B synthase) (UniProt Q03132); assay: BLI; GatorPrime; NDD-His-tag (100 ug/mL in PBS) immobilised on a Ni-NTA biosensor; CDD in solution at variable concentrations in 1x kinetic buffer (PBS pH 7.4, 0.1% BSA, 0.05% Tween 20); 1:1 global model; three repeats
[2] = molecular target: D5 NDD-His-tag, biotinylated (N-terminal docking domain of DEBS3, 6-deoxyerythronolide B synthase) (UniProt Q03133); assay: BLI; Octet RED96E; biotinylated D5 NDD (100 ug/mL in PBS) immobilised on a streptavidin (SA) biosensor; CDD in solution at variable concentrations in 1x kinetic buffer (PBS pH 7.4, 0.1% BSA, 0.05% Tween 20); 1:1 global model; three repeats
[3] = molecular target: T1, R5 NDD-His-tag (N-terminal docking domain of RapB, rapamycin polyketide synthase) (Streptomyces rapamycinicus); assay: BLI; GatorPrime; NDD-His-tag (100 ug/mL in PBS) immobilised on a Ni-NTA biosensor; CDD in solution at variable concentrations in 1x kinetic buffer (PBS pH 7.4, 0.1% BSA, 0.05% Tween 20); 1:1 global model; three repeats; settings: both partners purified
T1 chain: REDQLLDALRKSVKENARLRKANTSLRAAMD

## Flag-tag-D2 CDD (C-terminal docking domain of DEBS1, 6-deoxyerythronolide B synthase) (from UniProt Q03131 1-3491) (domain or fragment)
[1]
  Kd: 14600 nM

## Flag-tag-D4 CDD (C-terminal docking domain of DEBS2, 6-deoxyerythronolide B synthase) (from UniProt Q03132 1-3567) (domain or fragment)
[2]
  Kd: 280 nM

B1: Flag-tag-R4 CDD (C-terminal docking domain of RapA, rapamycin polyketide synthase) (domain or fragment)
chain: FAPAEPEPRLHEQELRRALAGISIDKFREAGVLDTLLRLAAMEGLAVPKPDSESDDEAFVDEMDADALIKHVLEEER
[3]
  Kd: 340 ± 30 nM

Source: article PMC9492657, “Metabolic pathway assembly using docking domains from type I cis-AT polyketide synthases” (Nature Communications, 2022)
